Measurements reported in patent US20220249633A1.

Target: HLA-A*24 (human)
Assay: UV-exchange ELISA, exchange yield grade

Row | Binder | peptide exchange yield
1 | KYLEDMKTYF [… (SEQ ID NO: 133)] | 50 to 75%
2 | KYIFQLNEI [… (SEQ ID NO: 143)] | 50 to 75%
3 | IYNETITDLL [… (SEQ ID NO: 105)] | 50 to 75%
4 | KFFDDLGDELLF [… (SEQ ID NO: 152)] | 20 to 49%
5 | VYFKAGLDVF [… (SEQ ID NO: 177)] | 50 to 75%
6 | IYNFVESKL [… (SEQ ID NO: 112)] | 50 to 75%
7 | AYVIAVHLF [… (SEQ ID NO: 116)] | > 75%
8 | SYPKIIEEF [… (SEQ ID NO: 110)] | 50 to 75%
9 | SYGTVSQI [SYGTVSQI (SEQ ID NO: 149)] | > 75%
10 | QYPFHVPLL [… (SEQ ID NO: 170)] | > 75%
11 | YYTQYSQTI [… (SEQ ID NO: 96)] | > 75%
12 | LFITGGQFF [… (SEQ ID NO: 109)] | > 75%
13 | LYLAFPLAF [… (SEQ ID NO: 147)] | 50 to 75%
14 | VYEKNGYIYF [… (SEQ ID NO: 174)] | 50 to 75%
15 | RYLNKSFVL [… (SEQ ID NO: 115)] | 50 to 75%
16 | QYILAVPVL [… (SEQ ID NO: 99)] | > 75%
17 | VYPFENFEF [… (SEQ ID NO: 102)] | 50 to 75%
18 | DYIPASGFALF [… (SEQ ID NO: 157)] | 50 to 75%
19 | EYLHNCSYF [… (SEQ ID NO: 137)] | > 75%
20 | VYGVPTPHF [… (SEQ ID NO: 154)] | > 75%
21 | NYITGKGDVF [… (SEQ ID NO: 169)] | 50 to 75%
22 | VYPFDWQYI [… (SEQ ID NO: 128)] | > 75%
23 | SYNGHLTIWF [… (SEQ ID NO: 141)] | 50 to 75%
24 | TYTFLKETF [… (SEQ ID NO: 97)] | > 75%
25 | IYKWITDNF [… (SEQ ID NO: 155)] | > 75%

Row | Binder | peptide exchange yield
26 | VYRVYVTTF [… (SEQ ID NO: 119)] | 50 to 75%
27 | RYLEAALRL [… (SEQ ID NO: 168)] | 50 to 75%
28 | EYQARIPEF [… (SEQ ID NO: 122)] | 50 to 75%
29 | NYYERIHAL [… (SEQ ID NO: 146)] | 50 to 75%
30 | QYFTGNPLF [… (SEQ ID NO: 127)] | 50 to 75%
31 | KYPDIVQQF [… (SEQ ID NO: 161)] | 50 to 75%
32 | RYGFYYVEF [… (SEQ ID NO: 167)] | 50 to 75%
33 | HYVPATKVF [… (SEQ ID NO: 164)] | 50 to 75%
34 | VYNAVSTSF [… (SEQ ID NO: 138)] | 20 to 49%
35 | FYTLPFHLI [… (SEQ ID NO: 166)] | > 75%
36 | PYLVVIHTL [… (SEQ ID NO: 108)] | 50 to 75%
37 | IYSFHTLSF [… (SEQ ID NO: 113)] | 50 to 75%
38 | RYPALFPVL [… (SEQ ID NO: 132)] | > 75%
39 | IYNETVRDLL [… (SEQ ID NO: 106)] | 50 to 75%
40 | TYKDYVDLF [… (SEQ ID NO: 124)] | < 20%
41 | EYFTPLLSGQF [… (SEQ ID NO: 165)] | 50 to 75%
42 | SYLTWHQQI [… (SEQ ID NO: 104)] | > 75%
43 | VYEAMVPLF [… (SEQ ID NO: 135)] | > 75%
44 | AYIPTPIYF [… (SEQ ID NO: 134)] | 50 to 75%
45 | IYPEWPVVFF [… (SEQ ID NO: 136)] | 50 to 75%
46 | RYGDGGSSF [… (SEQ ID NO: 160)] | 50 to 75%
47 | RYLTISNLQF [… (SEQ ID NO: 163)] | > 75%
48 | VFIFKGNEF [… (SEQ ID NO: 172)] | > 75%
49 | NYEDHFPLL [… (SEQ ID NO: 171)] | 50 to 75%
50 | KYFPYLVVI [… (SEQ ID NO: 107)] | 50 to 75%

Row | Binder | peptide exchange yield
51 | YYMELTKLLL [… (SEQ ID NO: 156)] | > 75%
52 | VFPRLHNVLF [… (SEQ ID NO: 98)] | 50 to 75%
53 | KYLNSVQYI [… (SEQ ID NO: 118)] | 50 to 75%
54 | QYLEKYYNL [… (SEQ ID NO: 173)] | > 75%
55 | KYTSYILAF [… (SEQ ID NO: 162)] | 20 to 49%
56 | GYIEHFSLW [… (SEQ ID NO: 120)] | > 75%
57 | EYLDRIGQLFF [… (SEQ ID NO: 131)] | 50 to 75%
58 | RYGLPAAWSTF [… (SEQ ID NO: 121)] | 50 to 75%
59 | VYVQILQKL [… (SEQ ID NO: 111)] | 50 to 75%
60 | VYALKVRTI [… (SEQ ID NO: 145)] | 50 to 75%
61 | SYGTVSQIF [… (SEQ ID NO: 148)] | > 75%
62 | VFSRDFGLLVF [… (SEQ ID NO: 125)] | 50 to 75%
63 | KYIDYLMTW [… (SEQ ID NO: 129)] | > 75%
64 | QYLDGTWSL [… (SEQ ID NO: 114)] | > 75%
65 | RYLINSYDF [… (SEQ ID NO: 140)] | > 75%
66 | VYTPVLEHL [… (SEQ ID NO: 123)] | 20 to 49%
67 | VYVPFGGKSMITF [… (SEQ ID NO: 153)] | > 75%
68 | IFGIFPNQF [… (SEQ ID NO: 139)] | 50 to 75%
69 | VYIESRIGTSTSF [… (SEQ ID NO: 100)] | 50 to 75%
70 | IYLSDLTYI [… (SEQ ID NO: 117)] | 50 to 75%
71 | FYINGQYQF [… (SEQ ID NO: 176)] | 50 to 75%
72 | IYEETRGVL [… (SEQ ID NO: 159)] | 50 to 75%
73 | LYSPVPFTL [… (SEQ ID NO: 175)] | 50 to 75%
74 | NYIPVKNGKQF [… (SEQ ID NO: 103)] | 50 to 75%
75 | VFASLPGFLF [… (SEQ ID NO: 144)] | > 75%
